Values belong to the binder of their own block, whether it stands above or below them.
Tests used:
[1] = target: T1, human PD-1-Fc (extracellular region of human PD-1 fused to hinge-CH2-CH3 of human immunoglobulin gamma 1) (human, UniProt P01857 99-330 = IgG part); test: BIACORE, PD-1-Fc immobilized
T1 construct: domain: hinge-CH2-CH3; also called PD-1-Fc (human Ig gamma1); Human PD-1 linked to IgG1

[2] = target: T2, soluble human B7-4.Ig / B7-4-Fc fusion protein (Example 11) (human, UniProt Q9NZQ7 19-238); test: BIACORE, PD-1-Fc immobilized, concentrated COS cell medium injected
T2 construct: not shown: Fc/Ig portion

[3] = target: T3, human B7-4M (B7-4 membrane form) expressed on transfected COS or CHO cells (human, UniProt Q9NZQ7 19-290); test: flow cytometry on human B7-4 CHO cells
T3 construct: Cell-surface form on transiently transfected COS cells or on CHO transfectants; also called B7-4M (292); COS cells expressing B7-4M

[4] = target: T3, human B7-4M (B7-4 membrane form) …; test: FACS on B7-4M-transfected COS cells
Experimental: COS cells were transfected with either vector DNA (pcDNAI), or an expression plasmid containing the B7-4M cDNA. After 72 hours, the transfected COS cells were detached by incubation in PBS containing 0.5 mM EDTA for 30 min. at 37° C.
The ability of COS cells expressing B7-4M to bind to various T cell receptors and antibodies was tested. […] The ability of COS cells expressing B7-4M to bind to IgG and murine ICOS-his fusion protein was also tested.

T3 sequence (Q9NZQ7 19-290): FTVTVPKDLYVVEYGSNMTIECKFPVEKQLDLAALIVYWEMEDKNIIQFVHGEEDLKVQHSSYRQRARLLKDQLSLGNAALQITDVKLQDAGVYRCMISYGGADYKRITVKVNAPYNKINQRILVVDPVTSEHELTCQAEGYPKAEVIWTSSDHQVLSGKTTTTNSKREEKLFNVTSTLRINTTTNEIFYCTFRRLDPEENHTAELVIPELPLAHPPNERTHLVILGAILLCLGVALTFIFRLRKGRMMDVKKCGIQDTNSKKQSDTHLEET
T1 sequence (P01857 other isoform, or with tags, fused parts or gaps limits assumed): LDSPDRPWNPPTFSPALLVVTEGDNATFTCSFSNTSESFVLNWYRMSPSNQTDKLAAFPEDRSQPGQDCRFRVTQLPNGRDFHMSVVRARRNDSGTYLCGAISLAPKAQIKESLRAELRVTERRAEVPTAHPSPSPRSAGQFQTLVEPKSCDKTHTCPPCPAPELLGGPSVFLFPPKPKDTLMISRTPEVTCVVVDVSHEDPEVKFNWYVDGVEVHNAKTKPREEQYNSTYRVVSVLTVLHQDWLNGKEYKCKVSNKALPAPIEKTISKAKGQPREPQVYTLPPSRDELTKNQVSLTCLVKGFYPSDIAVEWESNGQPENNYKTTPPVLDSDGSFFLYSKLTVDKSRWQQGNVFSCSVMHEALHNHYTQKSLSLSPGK
T2 sequence (Q9NZQ7 19-238): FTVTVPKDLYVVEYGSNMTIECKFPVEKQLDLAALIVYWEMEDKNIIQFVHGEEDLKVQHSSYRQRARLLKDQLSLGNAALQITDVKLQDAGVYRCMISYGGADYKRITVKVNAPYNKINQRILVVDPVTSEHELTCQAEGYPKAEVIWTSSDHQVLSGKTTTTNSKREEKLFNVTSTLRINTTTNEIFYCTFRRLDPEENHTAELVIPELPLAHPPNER

binding result [1]: no binding
B1: soluble form of human B7-2 (ligand)
chain: APLKIQAYFNETADLPCQFANSQNQSLSELVVFWQDQENLVLNEVYLGKEKFDSVHSKYMGRTSFDSDSWTLRLHNLQIKDKGLYQCIIHHKKPTGMIRIHQMNSELSVLANFSQPEIVPISNITENVYINLTCSSIHGYPEPKKMSVLLRTKNSTIEYDGVMQKSQDNVTELYDVSISLSVSFPDVTSNMTIFCILETDKTRLLSSPFSIELEDPQPPPDHIP
notes: also called soluble forms of B7-2

binding result [2]: binds
binding result [3]: binds
B2: murine PD-1-Fc / murine PD-1.Ig fusion protein (Fc fusion, UniProt Q02242 25-169, looked up)
chain: LEVPNGPWRSLTFYPAWLTVSEGANATFTCSLSNWSEDLMLNWNRLSPSNQTEKQAAFCNGLSQPVQDARFQIIQLPNRHDFHMNILDTRRNDSGIYLCGAISLHPKAKIEESPGAELVVTERILETSTRYPSPSPKPEGRFQGM
notes: also called mouse PD-1; not shown: Fc/Ig portion

binding result [4]: no binding
B3: murine ICOS-his fusion protein (receptor, UniProt Q9WVS0 21-144, looked up)
chain: EINGSADHRMFSFHNGGVQISCKYPETVQQLKMRLFREREVLCELTKTKGSGNAVSIKNPMLCLYHLSNNSVSFFLNNPDSSQGSYYFCSLSIFDPPPFQERNLSGGYLHIYESQLCCQLKLWL
notes: not shown: his tag

binding result [1]: no binding
B4: soluble form of human B7-1 (ligand)
chain: VIHVTKEVKEVATLSCGHNVSVEELAQTRIYWQKEKKMVLTMMSGDMNIWPEYKNRTIFDITNNLSIVILALRPSDEGTYECVVLKYEKDAFKREHLAEVTLSVKADFPTPSISDFEIPTSNIRRIICSTSGGFPEPHLSWLENGEELNAINTTVSQDPETELYAVSSKLDFNMTTNHSFMCLIKYGHLRVNQTFNWNTTKQEHFPDN
notes: also called soluble forms of B7-1
